From patent US20160176984A1 (published 2016) come the findings set out here.

For one assay, the target named is T1, wild type Fcab (human, UniProt P0DOX5 218-449 = IgG part).
T1 construct: also called Fcab wt; wtFcab
Description: SPR (Biacore), Fcab captured on Protein A chip, human soluble CD64 at 5 ug/ml as analyte. For orientation: SPR reads the build-up and loss of mass on a sensor chip optically.

For assay [1], the target named is T2, Fcab wt expressed on yeast (human, UniProt P0DOX5 218-449 = IgG part).
T2 construct: also called non-randomized Fc fragments (Fcab wt) expressed on yeast; not shown: Aga2 display fusion partner of the pYD1-derived vector
Description: FACS of yeast-displayed Fcab wt, CD64 staining.

For assay [2], the target named is T3, Her-2 on Her-2 over-expressing human breast cancer cell lines SKBR3 and Calu-3 (human, UniProt P04626 23-1255).
T3 construct: whole, on cells; also called Her-2 on SKBR3 cells
Description: FACS on SKBR3 cells, anti-human Fc-PE detection. The protocol:
(§1) Antigen binding was also determined by SPR. Biacore CM5 chips were coated with different amounts of human soluble Her-2 followed by addition of increasing concentrations of Fcabs. […] Antigen binding was also assessed by FACS using the Her-2 over-expressing human breast cancer cell lines SKBR3 and Calu-3. 1×10⁵ cells were incubated with increasing concentrations of Fcabs for 60 minutes on ice. Then, unbound antibodies were removed by centrifugation and washing. Cell bound Fcabs were detected by incubation with anti-human Fc specific antibodies conjugated to phycoerythrin (Sigma) for 60 minutes on ice. After washing the cells, the intensity of fluorescence on the cell surface was measured in a FACS Calibur instrument (Beckton Dickinson).

Assay [3] has as its target T3, Her-2 on Her-2 over-expressing human …. Description: cell-based or functional assay.
Assay [4] has as its target T4, Human soluble Her-2 (Bender Med Systems, Austria) (human, UniProt P04626 23-652, limits assumed).
T4 construct: given only as 'human soluble Her-2'; It was biotinylated (sulfo-LC-LC-biotin) for the yeast FACS selections; also called recombinant antigen Her2 (Bendermedsystems); Her2-biotin
Description: ELISA, human soluble Her-2 coated at 2 ug/ml, anti-Fc CH2-HRP detection. The protocol:
Human soluble Her-2 (Bender Med Systems, Austria) was coated to plastic at 2 μg/ml. After washing and blocking unspecific binding sites, increasing concentrations of Fcabs were added. To detect Her-2 bound Fcabs, anti-Fc CH2 domain specific monoclonal antibodies which were conjugated to horse radish peroxidase (Serotec) were added.

Assay [5] deals with T4, Human soluble Her-2 (Bender Med …). Description: SPR (Biacore), human soluble Her-2 on CM5 chip, Fcab as analyte. The protocol:
as §1

Assay [6] shares this target. Description: assay not stated; told under affinity maturation and FACS selection with Her2.

B1: human soluble CD64 (receptor, UniProt P12314 16-288, looked up)
chain: QVDTTKAVITLQPPWVSVFQEETVTLHCEVLHLPGSSSTQWFLNGTATQTSTPSYRITSASVNDSGEYRCQRGLSGRSDPIQLEIHRGWLLLQVSSRVFTEGEPLALRCHAWKDKLVYNVLYYRNGKAFKFFHWNSNLTILKTNISHNGTYHCSGMGKHRYTSAGISVTVKELFPAPVLNASVTSPLLEGNLVTLSCETKLLLQRPGLQLYFSFYMGSKTLRGRNTSSEYQILTARREDSGLYWCEAATEDGNVLKRSPELELQVLGLQLPTP
notes: also called CD64 (R&D Systems)
For the molecule B1, the binding result (in the assay with wild type Fcab; in assay [1]) was “binds” throughout.

B2: ABEFs0101 (designed binder)
chain: EPKSCDKTHTCPPCPAPELLGGPSVFLFPPKPKDTLMISRTPEVTCVVVDVSHEDPEVKFNWYVDGVEVHNAKTKPREEQYNSTYRVVSVLTVLHQDWLNGKEYKCKVSNKALPAPIEKTISKAKGQPREPQVYTLPPSRDEYLHGDVSLTCLVKGFYPSDIAVEWESNGQPENNYKTTPPVLDSDGSFFLYSKLTVARYSPSMWRWGHGNVFSCSVMHEALHNHYTQKSLSLSPGK
notes: The EF loop is given with 13 residues under 'AA198ff'
For B2, the values for the EC50 in assay [2] and in assay [4] were 5.2 nM and 16.1 nM, respectively. In assay [3], the “SKBR3 cell killing (ADCC with human NK cells, 7-AAD/CFSE FACS), EC50” value is 1 nM.

B3: H10-03-6 (designed binder)
chain: EPKSCDKTHTCPPCPAPELLGGPSVFLFPPKPKDTLMISRTPEVTCVVVDVSHEDPEVKFNWYVDGVEVHNAKTKPREEQYNSTYRVVSVLTVLHQDWLNGKEYKCKVSNKALPAPIEKTISKAKGQPREPQVYTLPPSRDEYLHGDVSLTCLVKGFYPSDIAVEWESNGQPENNYKTTPPVLDSDGSFFLYSKLTVPRHSARMWRWAHGNVFSCSVMHEALHNHYTQKSLSLSPGK
notes: Soluble Fcab; The EF loop is given with 13 residues under 'AA198ff'; also called H10-03-6 clone
B3: the Kd in assay [5] worked out at 8.6 nM. Besides, the EC50 in assay [2] is 10.3 nM; in assay [6], 18.9 nM; in assay [4], 4.8 nM. In addition, in assay [3], the “SKBR3 cell killing (ADCC with human NK cells, 7-AAD/CFSE FACS), EC50” value amounted to 1.1 nM.

As a reminder, the EC50 is the concentration needed to bring the measured effect to its halfway point. Higher therefore signals a need for much substance. As usually defined, the Kd is a measure of binding affinity in units of concentration. A lower Kd goes with tighter binding.
